Reference: article PMC3210482 (Journal of molecular biology, 2011)
Read-outs that look alike come from different tables or passages of the source.

B1: EnvZHDC (cytoplasmic HAMP, DHp and CA domains of E. coli histidine kinase EnvZ, amino acids 179-450) (domain or fragment, UniProt P0AEJ4 179-450, looked up)
chain: IRIQNRPLVDLEHAALQVGKGIIPPPLREYGASEVRSVTRAFNHMAAGVKQLADDRTLLMAGVSHDLRTPLTRIRLATEMMSEQDGYLAESINKDIEECNAIIEQFIDYLRTGQEMPMEMADLNAVLGEVIAAESGYEREIETALYPGSIEVKMHPLSIKRAVANMVVNAARYGNGWIKVSSGTEPNRAWFQVEDDGPGIAPEQRKHLFQPFVRGDSARTISGTGLGLAIVQRIVDNHNGMLELGTSERGGLSIRAWLPVPVTRAQGTTKEG
B2: EnvZDC (DHp and CA domains of E. coli EnvZ, amino acids 223-450) (domain or fragment, UniProt P0AEJ4 223-450, looked up)
chain: MAAGVKQLADDRTLLMAGVSHDLRTPLTRIRLATEMMSEQDGYLAESINKDIEECNAIIEQFIDYLRTGQEMPMEMADLNAVLGEVIAAESGYEREIETALYPGSIEVKMHPLSIKRAVANMVVNAARYGNGWIKVSSGTEPNRAWFQVEDDGPGIAPEQRKHLFQPFVRGDSARTISGTGLGLAIVQRIVDNHNGMLELGTSERGGLSIRAWLPVPVTRAQGTTKEG
B3: RstBHDC (cytoplasmic HAMP, DHp and CA domains of E. coli histidine kinase RstB, amino acids 157-433) (domain or fragment, UniProt P18392 157-433, looked up)
chain: MRPHWQDMLKLEAAAQRFGDGHLNERIHFDEGSSFERLGVAFNQMADNINALIASKKQLIDGIAHELRTPLVRLRYRLEMSDNLSAAESQALNRDISQLEALIEELLTYARLDRPQNELHLSEPDLPLWLSTHLADIQAVTPDKTVRIKTLVQGHYAALDMRLMERVLDNLLNNALRYCHSTVETSLLLSGNRATLIVEDDGPGIAPENREHIFEPFVRLDPSRDRSTGGCGLGLAIVHSIALAMGGTVNCDTSELGGARFSFSWPLWHNIPQFTSA
B4: RstBDC (DHp and CA domains of E. coli RstB, amino acids 201-433) (domain or fragment, UniProt P18392 201-433, looked up)
chain: MADNINALIASKKQLIDGIAHELRTPLVRLRYRLEMSDNLSAAESQALNRDISQLEALIEELLTYARLDRPQNELHLSEPDLPLWLSTHLADIQAVTPDKTVRIKTLVQGHYAALDMRLMERVLDNLLNNALRYCHSTVETSLLLSGNRATLIVEDDGPGIAPENREHIFEPFVRLDPSRDRSTGGCGLGLAIVHSIALAMGGTVNCDTSELGGARFSFSWPLWHNIPQFTSA

How the values were obtained:
FRET or BRET [1] = biological target: the molecule itself; experiment: FRET or BRET
FRET or BRET [2] = biological target: the molecule itself; experiment: FRET or BRET; remark: listed apart in the source

Protein	Kd (FRET or BRET [1]) [nM]	Kd (FRET or BRET [2]) [nM]
B1	400	
B2	100	
B3	300	
B4		270000
